One molecule from US20200317768A1 (published 2020) can be followed below.

One assay deals with T1, mature myostatin (human (mature form 100% identical in …, UniProt O08689 268-376 (mouse entry))).
T1 construct: Disulfide-bonded homodimer purified from latent myostatin; Biotinylated in the ELISA; also called human myostatin mature form; active myostatin
T1 sequence: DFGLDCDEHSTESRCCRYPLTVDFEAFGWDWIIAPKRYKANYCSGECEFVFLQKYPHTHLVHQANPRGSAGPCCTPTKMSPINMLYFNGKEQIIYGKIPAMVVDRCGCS
Kind of assay: ELISA, biotinylated antigen (4 nM) on streptavidin plate, anti-human IgG-HRP. The protocol: Uncoated ELISA plates (NUNC-IMMUNO plate MAXISORP surface, Nalge Nunc International) were coated with 20 μL of 50 nM streptavidin (GenScript) for 1 hour at room temperature. Plates were then washed with PBST three times and blocked with 50 μL 20% Blocking One (Nacalai Tesque) overnight. On the next day, each well of each plate was incubated with biotinylated mature myostatin, human or mouse biotinylated latent myostatin, or biotinylated recombinant mouse myostatin propeptide-Fc chimera protein (R&D Systems) at 4 nM/well/20 μL for 2 hours. After washing, 20 μL of antibody sample was added to the wells and the plates were left for 1 hour. The plates were washed and 20 μL of anti-human IgG-horseradish peroxidase (HRP) (Abcam) diluted in HEPES-buffered saline was added, and the plates were left for another hour. The plates were then washed again, and then 50 μL ABTS (KPL) was added to each well, and the plates were incubated for 1 hour.
(An ELISA detects its analyte on a solid surface through an enzyme-linked reagent.)

The target in assay [1] is T2, Human GDF11 with Flag-tag on N-terminus (human, UniProt O95390 11-407).
T2 construct: Whole entry as named; Biotinylated in the ELISA; also called Flag-hGDF11; human latent GDF11
T2 sequence: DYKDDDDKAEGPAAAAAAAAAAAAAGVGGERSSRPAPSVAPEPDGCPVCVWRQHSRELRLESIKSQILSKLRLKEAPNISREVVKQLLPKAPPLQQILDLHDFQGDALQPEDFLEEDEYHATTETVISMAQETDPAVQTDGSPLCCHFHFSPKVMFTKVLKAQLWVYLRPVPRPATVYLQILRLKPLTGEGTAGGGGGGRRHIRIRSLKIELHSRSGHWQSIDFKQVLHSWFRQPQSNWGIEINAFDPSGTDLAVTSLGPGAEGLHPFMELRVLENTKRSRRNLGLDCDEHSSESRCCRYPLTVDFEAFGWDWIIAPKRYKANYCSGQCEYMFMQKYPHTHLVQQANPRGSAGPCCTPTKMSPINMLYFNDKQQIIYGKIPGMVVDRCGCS
Kind of assay: ELISA, biotinylated human latent GDF11 (20 nM) on streptavidin plate, anti-human IgG-HRP. Here is the method: Uncoated ELISA plates (NUNC-IMMUNO plate MAXISORP™ surface, Nalge Nunc International) were coated with 20 μL of 50 nM streptavidin (GenScript) for 2 hour at room temperature. Plates were then washed with PBST three times and blocked with 50 μL 20% Blocking One (Nacalai Tesque) for overnight. On the next day, each well of the plates was incubated with biotinylated human latent myostatin at 2 nM/well/20 μL or biotinylated human latent GDF11 at 20 nM/well/20 μL for 2 hours. After washing, 20 μL of antibody sample was added to the wells and the plates were left for 1 hour. The plates were washed and 20 μL of anti-human IgG-horseradish peroxidase (HRP) (Abcam) diluted in HEPES-buffered saline was added, and the plates were left for another hour. The wells were washed again, and then 50 μL ABTS (KPL) was added to each well, and the plates were incubated for 1 hour.

The target in assay [2] is T3, Human latent myostatin (human, UniProt O14793 25-266; O14793 267-375).
T3 construct: Biotinylated in the ELISAs; also called human myostatin latent form
T3 sequence 1: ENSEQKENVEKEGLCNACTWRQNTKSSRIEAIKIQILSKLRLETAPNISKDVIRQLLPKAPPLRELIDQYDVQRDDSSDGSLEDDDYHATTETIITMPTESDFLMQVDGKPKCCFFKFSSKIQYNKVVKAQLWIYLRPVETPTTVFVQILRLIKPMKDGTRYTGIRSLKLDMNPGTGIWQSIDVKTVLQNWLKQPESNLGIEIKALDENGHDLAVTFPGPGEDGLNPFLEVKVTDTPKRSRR
T3 sequence 2: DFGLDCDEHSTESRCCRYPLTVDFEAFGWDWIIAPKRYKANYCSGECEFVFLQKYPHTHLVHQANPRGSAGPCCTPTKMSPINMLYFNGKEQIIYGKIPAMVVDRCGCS
Kind of assay: SPR (BIACORE T200), antibody captured by ProA/G, latent myostatin as analyte, 37 C, pH7.4, 1:1 fit. The protocol: (§1) The kinetic parameters of anti-latent myostatin antibodies against human, cynomolgus monkey (cyno), and mouse latent myostatin were assessed at 37° C. at pH7.4 using a BIACORE® T200 instrument (GE Healthcare). ProA/G (Pierce) was immobilized onto all flow cells of a CM4 chip using amine coupling kit (GE Healthcare). Anti-latent myostatin antibody and analytes were prepared in ACES pH7.4 (20 mM ACES, 150 mM NaCl, 1.2 mM CaCl₂), 0.05% TWEEN® 20, 0.005% NaN₃). […] Then human, cyno, or mouse latent myostatin was injected at 3.125 to 50 nM prepared by two-fold serial dilution, followed by dissociation. The sensor surface was regenerated with 25 mM NaOH. Kinetic parameters were determined by processing and fitting the data to a 1:1 binding model using BIACORE® T200 Evaluation software, version 2.0 (GE Healthcare).

Assay [3] addresses T4, Cynomolgus monkey latent myostatin (cynomolgus monkey, UniProt Q95J86 25-266; Q95J86 267-375).
T4 construct: signal 1-24; also called Cyno latent myostatin
T4 sequence 1: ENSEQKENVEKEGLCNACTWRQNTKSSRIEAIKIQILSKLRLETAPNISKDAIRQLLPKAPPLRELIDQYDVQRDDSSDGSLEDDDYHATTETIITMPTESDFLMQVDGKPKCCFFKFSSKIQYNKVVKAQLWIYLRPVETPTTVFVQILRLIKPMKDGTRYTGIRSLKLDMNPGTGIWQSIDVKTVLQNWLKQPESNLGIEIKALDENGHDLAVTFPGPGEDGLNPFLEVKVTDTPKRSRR
T4 sequence 2: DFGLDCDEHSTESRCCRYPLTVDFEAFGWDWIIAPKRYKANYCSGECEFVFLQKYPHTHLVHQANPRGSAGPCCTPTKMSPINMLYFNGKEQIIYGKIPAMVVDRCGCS
The description is as above. The protocol:
as §1

For a further assay, the target named is T5, Mouse latent myostatin (mouse, UniProt O08689 26-267; O08689 268-376).
T5 construct: signal 1-24
T5 sequence 1: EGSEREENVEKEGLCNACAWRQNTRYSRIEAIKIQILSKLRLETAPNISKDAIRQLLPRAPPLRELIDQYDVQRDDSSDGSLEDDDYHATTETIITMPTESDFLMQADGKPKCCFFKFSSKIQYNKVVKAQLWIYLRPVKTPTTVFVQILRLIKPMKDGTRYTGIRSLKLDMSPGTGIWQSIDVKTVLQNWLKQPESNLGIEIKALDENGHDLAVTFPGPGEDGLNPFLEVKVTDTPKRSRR
T5 sequence 2: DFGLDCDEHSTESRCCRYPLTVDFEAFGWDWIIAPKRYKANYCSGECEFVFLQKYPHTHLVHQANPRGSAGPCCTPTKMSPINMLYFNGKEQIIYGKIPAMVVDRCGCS
Described as above. Here is the method: as §1

The target of assay [4] is T3, Human latent myostatin. Kind of assay: SPR (BIACORE) as in Example 7; antigen not given, values equal those for human latent myostatin in Table 3. Here is the method:
as §1
Humanized antibodies were transiently expressed in FS293-F cells, and HEK Blue Assay and BIACORE® analysis were carried out as described above.
For orientation: In SPR one partner is held on a chip, and binding of the other changes the refractive index at the surface.

B1: MS_MST1032Ha-G1m/MST1032La-k0MC (antibody, human IgG1, kappa, V domains shown)
VH: QSLEESGGRLVTPGGSLTVTCRVSGIDLSSYDISWVRQAPGKGLEWIGIISYAGSTYYASWAKGRFTISKTSTTVDLKMTSLTTEDTATYFCARGVPAYSTGGDLWGPGTLVTVSS
VL: AQVLTQTASSVSAAVGGTVTINCQSSQSVYDNNWLSWFQQKPGQPPKLLIYWASTLASGVPSRFKGSGSGTQFTLTISDLECDDAATYYCAGGYGGGLYAFGGGTKVEIKR
notes: Chimeric antibody: rabbit variable regions, human G1m / k0MC constant regions; also called MST1032-G1m
For B1, the binding result (with mature myostatin; in assay [1]) was “no binding” in each case. For the same molecule, the Kd in the assay with Human latent myostatin [2] is 0.0766 nM; in assay [3] it was 0.0717 nM; with Mouse latent myostatin, 0.0579 nM; in the assay with Human latent myostatin [4] it was 0.0766 nM. For the same molecule, the off-rate (koff) was 8.65e-05 s⁻¹ with Human latent myostatin [2], 7.79e-05 s⁻¹ in assay [3], 8.16e-05 s⁻¹ in the assay with Mouse latent myostatin and 8.65e-05 s⁻¹ with Human latent myostatin [4]. The kon with Human latent myostatin [2] came to 1.13e+06 M⁻¹ s⁻¹; in assay [3], 1.09e+06 M⁻¹ s⁻¹; with Mouse latent myostatin, 1.41e+06 M⁻¹ s⁻¹; with Human latent myostatin [4], 1.13e+06 M⁻¹ s⁻¹.

The term Kd denotes the concentration at which binding is half-saturated. A word on the koff: it is the rate constant with which the complex falls apart. In general, kon refers to a measure of how fast the partners come together.
